Data on two molecules can be found in patent publication US20080125491A1 (ARENA PHARMACEUTICALS, published 2008).

Where two headings read alike, the source gives them in different places.

Assay in all cases: cell-based or functional assay
The target in assay [1] is HA/V5 double tagged endogenous human FPRL2 (human).
Assay [2] has as its target HA/V5 double-tagged endogenous human FPR (human) (UniProt P21462).
Assay [3] has as its target HA/V5 double-tagged endogenous human FPRL1 (human) (UniProt P25090).
For assay [4], the target named is T1, HA/V5 double tagged endogenous human FPRL2 (human).
T1 chain: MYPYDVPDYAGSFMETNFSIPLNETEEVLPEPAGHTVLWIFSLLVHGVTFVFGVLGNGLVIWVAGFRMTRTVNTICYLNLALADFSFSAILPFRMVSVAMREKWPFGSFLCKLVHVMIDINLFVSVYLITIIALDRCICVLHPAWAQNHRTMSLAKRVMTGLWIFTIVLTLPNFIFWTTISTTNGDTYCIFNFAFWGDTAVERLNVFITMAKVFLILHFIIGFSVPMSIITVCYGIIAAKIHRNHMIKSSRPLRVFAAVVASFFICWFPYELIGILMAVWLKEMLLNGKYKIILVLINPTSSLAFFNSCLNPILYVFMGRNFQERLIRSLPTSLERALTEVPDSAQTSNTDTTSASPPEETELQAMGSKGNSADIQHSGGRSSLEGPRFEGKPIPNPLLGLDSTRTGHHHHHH

Chain of HA/V5 double-tagged endogenous human FPRL1 (human) (P25090 other isoform, or with tags, fused parts or gaps): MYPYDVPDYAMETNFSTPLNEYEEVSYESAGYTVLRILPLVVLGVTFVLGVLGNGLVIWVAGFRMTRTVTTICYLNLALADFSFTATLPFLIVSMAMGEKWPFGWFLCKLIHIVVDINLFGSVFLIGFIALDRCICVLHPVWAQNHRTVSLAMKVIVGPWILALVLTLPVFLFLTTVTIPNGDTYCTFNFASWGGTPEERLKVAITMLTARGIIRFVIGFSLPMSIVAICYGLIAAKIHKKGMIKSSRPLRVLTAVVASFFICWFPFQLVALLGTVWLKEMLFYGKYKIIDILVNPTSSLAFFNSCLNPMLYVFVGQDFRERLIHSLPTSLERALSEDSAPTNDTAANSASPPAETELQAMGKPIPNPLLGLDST
Chain of HA/V5 double-tagged endogenous human FPR (human) (P21462 other isoform, or with tags, fused parts or gaps): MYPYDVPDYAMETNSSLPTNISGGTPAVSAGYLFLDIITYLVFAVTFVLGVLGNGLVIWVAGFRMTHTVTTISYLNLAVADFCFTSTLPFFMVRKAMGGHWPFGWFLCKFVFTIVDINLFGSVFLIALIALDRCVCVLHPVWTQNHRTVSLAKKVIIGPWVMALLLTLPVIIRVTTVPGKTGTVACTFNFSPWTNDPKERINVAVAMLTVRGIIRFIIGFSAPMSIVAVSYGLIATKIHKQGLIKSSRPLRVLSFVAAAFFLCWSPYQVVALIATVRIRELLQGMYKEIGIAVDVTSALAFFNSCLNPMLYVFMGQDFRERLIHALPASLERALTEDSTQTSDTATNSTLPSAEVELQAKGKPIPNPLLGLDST

On to [Gly14]-Humanin (peptide), for which the EC50, [35S]GTPγS binding to membranes of transiently transfected CHO cells in assay [1] was 72 nM; in assay [3], 1500 nM. Also, the [35S]GTPγS binding to membranes of transiently transfected CHO cells; highest dose without significant activity in assay [2] is > 10 µM.

As to MAPRGFSCLLLLTSEIDLPVKRRA [Humanin], in assay [4], the “EC50, [35S]GTPγS binding to membranes of transiently transfected CHO cells” value was ~320 nM and the “EC50 of Humanin driven pigment aggregation in melanophore (Gi coupling)” value was ~239 nM.
